# Laboratory results as given in patent US20250281611A1 (BIOSCEPTRE AUST, published 2025).
# T1: CD19 (UniProt P15391 20-556, limits assumed)
# T1 construct: whole, on cells; also called CD19 on JeKo-1
# T1 sequence (looked up): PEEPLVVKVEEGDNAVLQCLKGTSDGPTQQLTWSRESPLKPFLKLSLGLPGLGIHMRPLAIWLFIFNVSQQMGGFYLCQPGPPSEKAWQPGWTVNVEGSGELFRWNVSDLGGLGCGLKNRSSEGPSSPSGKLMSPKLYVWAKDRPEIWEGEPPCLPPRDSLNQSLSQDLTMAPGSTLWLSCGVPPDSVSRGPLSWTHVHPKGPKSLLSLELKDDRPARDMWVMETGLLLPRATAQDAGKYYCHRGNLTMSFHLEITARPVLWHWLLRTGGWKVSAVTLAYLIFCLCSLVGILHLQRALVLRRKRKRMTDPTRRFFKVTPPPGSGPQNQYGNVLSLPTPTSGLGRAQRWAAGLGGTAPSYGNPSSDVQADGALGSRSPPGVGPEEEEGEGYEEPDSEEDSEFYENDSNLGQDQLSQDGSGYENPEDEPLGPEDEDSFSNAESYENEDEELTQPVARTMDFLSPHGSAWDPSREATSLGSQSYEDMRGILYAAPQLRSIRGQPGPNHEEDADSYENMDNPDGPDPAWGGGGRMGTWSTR
# How the values were obtained:
# [1] = biological target: T2, nfP2X7 CAR 1; assay: flow cytometry, CAR T cells, anti-His-FITC, EGFR+ MFI over background 0.4
# T2 construct: Expressed on T cells with truncated EGFR as marker gene; also called anti-nfP2X7 receptor CAR 1; nfP2X7 targeted CAR on EGFR+ T cells
# Summary of the method: (§1)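 CAR T cells incubated with BRiDGE variants at saturating concentrations; bound BRiDGE detected with anti-His-FITC by flow cytometry. EGFR marks CAR expression. Value is median fluorescence intensity on EGFR+ (CAR+) cells divided by that on EGFR− (CAR−) cells.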
# [2] = biological target: T3, CD33 (UniProt P20138 18-364, limits assumed); assay: flow cytometry, MOLM-13 cells, anti-His-FITC detection, ratio to no bridge
# T3 construct: whole, on cells; also called Siglec-3; CD33 on MOLM-13 cells
# T3 sequence (P20138 18-364 limits assumed): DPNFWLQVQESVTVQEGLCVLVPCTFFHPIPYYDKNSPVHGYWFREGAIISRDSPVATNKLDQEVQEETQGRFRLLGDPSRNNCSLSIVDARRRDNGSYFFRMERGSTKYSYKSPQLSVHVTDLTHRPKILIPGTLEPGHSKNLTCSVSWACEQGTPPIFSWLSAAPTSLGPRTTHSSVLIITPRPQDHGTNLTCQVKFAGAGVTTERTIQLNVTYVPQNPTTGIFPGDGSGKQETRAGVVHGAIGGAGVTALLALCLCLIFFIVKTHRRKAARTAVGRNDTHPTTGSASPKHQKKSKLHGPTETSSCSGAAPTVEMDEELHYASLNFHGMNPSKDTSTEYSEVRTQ
# Protocol: (§2) MOLM-13 cells were incubated with different CD33 BRIDGE variants at saturating concentrations. […] The MFI intensity correlates with the number of secondary antibodies bound to the CD33 BRIDGE variants that are only detected if they are bound to the MOLM-13 cells. MFI: median fluorescence intensity. BLItz: Bio-Layer interferometry (BLI) technology using HIS-tag identification tips. […] The higher the MFIR, the stronger the binding.
# [3] = biological target: T2, nfP2X7 CAR 1; assay: flow cytometry, nfP2X7 CAR T cells (EGFR+), anti-His-FITC detection
# [4] = biological target: T3, CD33; assay: flow cytometry, MOLM-13 cells, anti-His-FITC detection
# Protocol: as §2
# [5] = biological target: T2, nfP2X7 CAR 1; assay: flow cytometry, CAR T cells, anti-His-FITC, EGFR+ over EGFR- cells
# Summary of the method: as §1
# [6] = biological target: T1, CD19; assay: flow cytometry, JeKo-1 cells, bridge at saturating conc., BIL03s-AF647 detection
# Protocol: as §2, with “JeKo-1” for “MOLM-13”, “CD19 BRiDGE” for “CD33 BRIDGE”, “secondary bound” for “secondary”, “BLitz:” for “BLItz:”
# [7] = biological target: T4, nfP2X7 CAR 1; assay: flow cytometry, nfP2X7 CAR 1 T cells (EGFR+ gate), anti-His-FITC detection
# T4 construct: CAR-positive cells gated by the co-expressed EGFR marker; also called nfP2X7 targeted CAR; nfP2X7 CAR on EGFR+ T cells
# Protocol: (§3) nfP2X₇ CAR T cells were incubated with different BRiDGE variants at saturating concentrations. […] The MFI intensity correlates with the number of secondary bound antibodies bound to the BRiDGEs that are only detected if they are bound to the CAR T cells. EGFR was used as a marker gene to detect the CAR expression. Thus, the EGFR+ T cell population was defined as the CAR expressing cells and the EGFR− T cell population was defined as the CAR negative subset. MFI: median fluorescence intensity. EGFR: epidermal growth factor receptor. BLItz: Bio-Layer interferometry (BLI) technology using HIS-tag identification tips. HIS-tag MFI Ratio: relative index that is calculated by the testing condition MFI divided by the control MFI, which corresponds to the MFI measured on EGFR+ T cells (defined as CAR positive cells) divided by the MFI measured on the EGFR− T cells (defined as CAR negative cells). […] The higher the MFIR, the stronger the binding.
# [8] = biological target: T4, nfP2X7 CAR 1; assay: flow cytometry, anti-His-FITC, MFI on EGFR+ (CAR+) T cells over background 0.44
# Protocol: as §3
# [9] = biological target: T1, CD19; assay: flow cytometry, JeKo-1 cells, bridge at saturating conc., anti-His-FITC detection
# Protocol: as §2, with “JeKo-1” for “MOLM-13”, “CD19 BRiDGE” for “CD33 BRIDGE”, “secondary bound” for “secondary”, “BLitz:” for “BLItz:”
# [10] = biological target: T1, CD19; assay: flow cytometry, JeKo-1 cells, anti-His-FITC detection, MFI over no-bridge control
# Protocol: as §2, with “JeKo-1” for “MOLM-13”, “CD19 BRiDGE” for “CD33 BRIDGE”, “secondary bound” for “secondary”, “BLitz:” for “BLItz:”
# [11] = biological target: T4, nfP2X7 CAR 1; assay: flow cytometry, anti-His-FITC, MFI on EGFR+ (CAR+) over EGFR- (CAR-) T cells
# Protocol: as §3
# [12] = biological target: T1, CD19; assay: flow cytometry, JeKo-1 cells, BIL03s-AF647 detection, MFI over no-bridge control
# Protocol: as §2, with “JeKo-1” for “MOLM-13”, “CD19 BRiDGE” for “CD33 BRIDGE”, “secondary bound” for “secondary”, “BLitz:” for “BLItz:”
Binder,HisTag MFI Ratio (background 0.4) [1],MFIR HisTag FITC [2],MFI HisTag FITC in EGFR+ Population [3],MFI HisTag FITC [4],HisTag MFI Ratio of EGFR+/EGFR- [5],MFI Bil03 AF647 [6],MFI HisTag FITC in EGFR+ Population [7],HisTag MFI Ratio (background 0.44) [8],MFI HisTag FITC [9],MFIR HisTag FITC [10],HisTag MFI Ratio of EGFR+/EGFR- [11],MFIR BIL03 AF647 [12]
"CD33 BRIDGE variant B34 (Fab, Lintuzumab-based Fab bridging molecule) light: DFPGHNYTTRNILPGLNITSTFHKTSGSGKEPKSSDKTHTGGGGSDIQMTQSPSSLSASVGDRVTITCRASESVDNYGISFMNWFQQKPGKAPKLLIYAASNQGSGVPSRFSGSGSGTDFTLTISSLQPDDFATYYCQQSKEVPWTFGQGTKVEIKRTVAAPSVFIFPPSDEQLKSGTASVVCLLNNFYPREAKVQWKVDNALQSGNSQESVTEQDSKDSTYSLSSTLTLSKADYEKHKVYACEVTHQGLSSPVTKSFNRGECHHHHHH heavy: QVQLVQSGAEVKKPGSSVKVSCKASGYTFTDYNMHWVRQAPGQGLEWIGYIYPYNGGTGYNQKFKSKATITADESTNTAYMELSSLRSEDTAVYYCARGRPAMDYWGQGTLVTVSSASTKGPSVFPLAPSSKSTSGGTAALGCLVKDYFPEPVTVSWNSGALTSGVHTFPAVLQSSGLYSLSSVVTVPSSSLGTQTYICNVNHKPSNTKVDKKVEPKSCHHHHHH",3.3,10.4,1.31,6.98,3,–,–,–,–,–,–,–
"CD33 BRIDGE variant B35 (Fab, Lintuzumab-based Fab bridging molecule) light: DFPGHNYTTRNILPGLNITSTFHKTSGSGKGSEPKSSDKTHTGGGGSDIQMTQSPSSLSASVGDRVTITCRASESVDNYGISFMNWFQQKPGKAPKLLIYAASNQGSGVPSRFSGSGSGTDFTLTISSLQPDDFATYYCQQSKEVPWTFGQGTKVEIKRTVAAPSVFIFPPSDEQLKSGTASVVCLLNNFYPREAKVQWKVDNALQSGNSQESVTEQDSKDSTYSLSSTLTLSKADYEKHKVYACEVTHQGLSSPVTKSFNRGECHHHHHH heavy: QVQLVQSGAEVKKPGSSVKVSCKASGYTFTDYNMHWVRQAPGQGLEWIGYIYPYNGGTGYNQKFKSKATITADESTNTAYMELSSLRSEDTAVYYCARGRPAMDYWGQGTLVTVSSASTKGPSVFPLAPSSKSTSGGTAALGCLVKDYFPEPVTVSWNSGALTSGVHTFPAVLQSSGLYSLSSVVTVPSSSLGTQTYICNVNHKPSNTKVDKKVEPKSCHHHHHH",5.4,9.88,2.15,6.62,3.8,–,–,–,–,–,–,–

# More lines, now with the values ahead:
HisTag MFI Ratio (background 0.4) [1],MFIR HisTag FITC [2],MFI HisTag FITC in EGFR+ Population [3],MFI HisTag FITC [4],HisTag MFI Ratio of EGFR+/EGFR- [5],MFI Bil03 AF647 [6],MFI HisTag FITC in EGFR+ Population [7],HisTag MFI Ratio (background 0.44) [8],MFI HisTag FITC [9],MFIR HisTag FITC [10],HisTag MFI Ratio of EGFR+/EGFR- [11],MFIR BIL03 AF647 [12],Binder
4.1,10,1.65,6.72,3.3,–,–,–,–,–,–,–,"CD33 BRIDGE variant B36 (Fab, Lintuzumab-based Fab bridging molecule) light: DFPGHNYTTRNILPGLNITSTFHKTSGSGKGGGGSEPKSSDKTHTGGGGSDIQMTQSPSSLSASVGDRVTITCRASESVDNYGISFMNWFQQKPGKAPKLLIYAASNQGSGVPSRFSGSGSGTDFTLTISSLQPDDFATYYCQQSKEVPWTFGQGTKVEIKRTVAAPSVFIFPPSDEQLKSGTASVVCLLNNFYPREAKVQWKVDNALQSGNSQESVTEQDSKDSTYSLSSTLTLSKADYEKHKVYACEVTHQGLSSPVTKSFNRGECHHHHHH heavy: QVQLVQSGAEVKKPGSSVKVSCKASGYTFTDYNMHWVRQAPGQGLEWIGYIYPYNGGTGYNQKFKSKATITADESTNTAYMELSSLRSEDTAVYYCARGRPAMDYWGQGTLVTVSSASTKGPSVFPLAPSSKSTSGGTAALGCLVKDYFPEPVTVSWNSGALTSGVHTFPAVLQSSGLYSLSSVVTVPSSSLGTQTYICNVNHKPSNTKVDKKVEPKSCHHHHHH"
–,–,–,–,–,3.19,2.1,4.8,3.21,4.17,4,6.93,"CD19 BRIDGE variant B1 (Fab, V domains shown) VH: EVQLVESGGGLVKPGGSLKLSCAASGYTFTSYVMHWVRQAPGKGLEWIGYINPYNDGTKYNEKFQGRVTISSDKSISTAYMELSSLRSEDTAMYYCARGTYYYGTRVFDYWGQGTLVTVSS VL: DIVMTQSPATLSLSPGERATLSCRSSKSLQNVNGNTYLYWFQQKPGQSPQLLIYRMSNLNSGVPDRFSGSGSGTEFTLTISSLEPEDFAVYYCMQHLEYPITFGAGTKLEIKR"
